The record followed here is US20220010004A1 (published 2022).

The labels stand for the following.
B1: peptide NIKAVPGGGS (peptide)
peptide: NIKAVPGGGS
notes: Tau-derived peptide with histidine 299 changed to alanine
B2: monoclonal antibody DC8E8 (antibody, mouse IgG1, V domains shown)
VH: QVQLQQSGPELVKPGTSVKMPCKASGYIFTDYVISWVKQRTGQGLEWIGEIFPRSGSTYYNEKFKGKATLTADKSSNTAYMQLSSVTSEDSAVYFCARDYYGTSFAMDYWGQGTSVTVSS
VL: DIVMSQSPSSLAVSAGEKVTMSCKSSQSLLNSRTRKNYLAWYQQKPGQSPKLLIYWASTRESGVPDRFTGSGSGTDFTLTISSVQAEDLAVYYCKQSFYLRTFGGGTKLDIK
notes: Mouse IgG1 with kappa light chain, from hybridoma ATCC PTA-11994; also called mAb DC8E8

Assay [1] addresses B2. Put plainly: competition ELISA; competitor: coated tauΔ(1-150;392-441)/4R.
Assay [2] concerns the target B2. As to the kind of experiment: competition ELISA against coated tauΔ(1-150;392-441)/4R.
The next assay deals with tauΔ283-441 (human, UniProt P10636 1-599). As to the kind of experiment: ELISA, coated tau (5 µg/ml), hybridoma supernate.
Sequence of tauΔ283-441 (P10636 other isoform, or with tags, fused parts or gaps mutant): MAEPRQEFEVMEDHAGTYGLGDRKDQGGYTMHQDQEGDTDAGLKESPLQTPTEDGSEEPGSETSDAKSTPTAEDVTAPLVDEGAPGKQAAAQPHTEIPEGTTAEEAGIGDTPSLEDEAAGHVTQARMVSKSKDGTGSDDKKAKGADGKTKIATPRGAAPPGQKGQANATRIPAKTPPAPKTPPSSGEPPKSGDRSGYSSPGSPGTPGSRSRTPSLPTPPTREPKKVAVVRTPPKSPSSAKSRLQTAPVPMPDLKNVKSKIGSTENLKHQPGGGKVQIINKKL
A further assay has as its target tauΔ222-427 (human, UniProt P10636 1-758). As to the kind of experiment: ELISA, coated tau (5 µg/ml), hybridoma supernate.
The target of another assay is T1, tauΔ228-441 (human, UniProt P10636 1-544).
T1 construct: also called C-terminally truncated tau protein
T1 sequence (P10636 other isoform, or with tags, fused parts or gaps mutant): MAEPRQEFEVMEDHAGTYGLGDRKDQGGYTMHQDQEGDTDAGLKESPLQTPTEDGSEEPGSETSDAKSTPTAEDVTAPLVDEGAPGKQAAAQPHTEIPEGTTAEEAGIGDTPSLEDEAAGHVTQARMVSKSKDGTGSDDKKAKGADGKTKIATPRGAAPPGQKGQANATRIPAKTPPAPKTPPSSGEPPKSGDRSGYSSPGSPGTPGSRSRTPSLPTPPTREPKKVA
Put plainly: ELISA, coated tau (5 µg/ml), hybridoma supernate.

The target of another assay is tauΔ306-400 (human, UniProt P10636 1-758). As to the kind of experiment: ELISA, coated tau (5 µg/ml), hybridoma supernate.
Sequence of tauΔ306-400 (P10636 other isoform, or with tags, fused parts or gaps mutant): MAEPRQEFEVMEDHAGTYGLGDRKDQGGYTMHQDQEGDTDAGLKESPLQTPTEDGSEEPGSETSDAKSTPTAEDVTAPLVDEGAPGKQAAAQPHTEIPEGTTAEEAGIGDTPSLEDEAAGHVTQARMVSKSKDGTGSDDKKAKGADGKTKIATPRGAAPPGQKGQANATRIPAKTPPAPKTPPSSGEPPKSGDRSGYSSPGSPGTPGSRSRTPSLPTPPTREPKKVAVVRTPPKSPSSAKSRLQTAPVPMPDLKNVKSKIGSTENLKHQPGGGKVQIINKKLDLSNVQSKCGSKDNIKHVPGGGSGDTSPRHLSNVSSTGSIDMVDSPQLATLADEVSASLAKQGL
In a further assay the target is tauΔ137-441 (human, UniProt P10636 1-387). Put plainly: ELISA, coated tau (5 µg/ml), hybridoma supernate.
Sequence of tauΔ137-441 (P10636 other isoform, or with tags, fused parts or gaps mutant): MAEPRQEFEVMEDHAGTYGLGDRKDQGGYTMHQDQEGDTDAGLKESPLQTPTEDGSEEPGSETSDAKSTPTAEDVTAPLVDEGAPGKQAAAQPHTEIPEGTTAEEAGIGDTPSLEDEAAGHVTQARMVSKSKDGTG
A further assay has as its target tauΔ300-312 (human, UniProt P10636 1-758). As to the kind of experiment: ELISA, coated tau (5 µg/ml), hybridoma supernate.
The next assay addresses tauΔ257-400 (human, UniProt P10636 1-758). As to the kind of experiment: ELISA, coated tau (5 µg/ml), hybridoma supernate.
The next assay addresses T2, tau peptide 301-330 (human).
T2 construct: Synthetic; Built from 2N4R numbering
T2 peptide: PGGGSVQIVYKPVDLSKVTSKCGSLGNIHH
As to the kind of experiment: ELISA, coated peptide (5 µg/ml), hybridoma supernate.

For the next assay, the target named is T3, tau peptide 270-300 (human).
T3 construct: Synthetic; Built from 2N4R numbering
T3 peptide: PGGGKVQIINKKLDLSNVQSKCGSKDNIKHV
The assay is described as above.

A further assay deals with T4, tau peptide 240-270 (human).
T4 construct: Synthetic; Built from 2N4R numbering
T4 peptide: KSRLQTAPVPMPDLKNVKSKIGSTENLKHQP
The assay is described as above.

The target in assay [3] is T5, human full-length tau isoform 2N4R (human, UniProt P10636 1-758).
T5 construct: Recombinant, E. coli; also called tau 2N4R; tau441
T5 sequence (P10636 other isoform, or with tags, fused parts or gaps limits assumed): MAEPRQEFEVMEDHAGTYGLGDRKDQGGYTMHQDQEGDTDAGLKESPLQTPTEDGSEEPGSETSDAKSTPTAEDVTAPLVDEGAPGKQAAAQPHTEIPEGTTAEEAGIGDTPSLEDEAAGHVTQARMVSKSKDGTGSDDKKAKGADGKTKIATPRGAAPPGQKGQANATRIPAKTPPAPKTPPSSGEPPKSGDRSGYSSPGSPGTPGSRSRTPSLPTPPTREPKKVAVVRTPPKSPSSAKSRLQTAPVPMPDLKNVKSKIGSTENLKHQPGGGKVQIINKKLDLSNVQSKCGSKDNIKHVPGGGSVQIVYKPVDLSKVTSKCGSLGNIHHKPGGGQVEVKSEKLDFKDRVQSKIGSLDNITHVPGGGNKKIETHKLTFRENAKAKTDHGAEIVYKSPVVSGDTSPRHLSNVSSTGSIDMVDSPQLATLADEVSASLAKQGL
Put plainly: SPR (Biacore), DC8E8 captured, tau injected.
Experimental: (§1) A BIACORE3000 instrument with a CMS sensor chip (Biacore AB, Uppsala) was used for the SPR assays. Amine-coupling reagents (EDC, NHS, ethanolamine pH 8.5), P20 detergent, and 10 mM sodium acetate pH 5.0 were obtained from Biacore AB. These experiments were done at 25° C. in PBS pH 7.4 with 0.005% of P20 (PBS-P) as the running buffer.
(§2) Kinetic rate constants were approximated globally, maximal responses were fitted locally, and the bulk response was set to zero.

The target in a further assay is T6, tauΔ(1-150; 392-441)/4R (human, UniProt P10636 468-708).
T6 construct: Also the transgene of SHR72 rats; also called tau 151-391/4R; misdisordered tau
T6 sequence (P10636 other isoform, or with tags, fused parts or gaps mutant limits assumed): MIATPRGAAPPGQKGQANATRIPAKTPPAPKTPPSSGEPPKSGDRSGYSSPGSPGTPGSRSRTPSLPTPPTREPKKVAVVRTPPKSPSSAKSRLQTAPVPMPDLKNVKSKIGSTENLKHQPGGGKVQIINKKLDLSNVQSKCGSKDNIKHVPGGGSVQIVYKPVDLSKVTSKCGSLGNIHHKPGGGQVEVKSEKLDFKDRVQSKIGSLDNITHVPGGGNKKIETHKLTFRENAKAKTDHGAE
As to the kind of experiment: SPR (Biacore), DC8E8 captured, tau injected.

Sequence of tauΔ257-400 (P10636 other isoform, or with tags, fused parts or gaps mutant): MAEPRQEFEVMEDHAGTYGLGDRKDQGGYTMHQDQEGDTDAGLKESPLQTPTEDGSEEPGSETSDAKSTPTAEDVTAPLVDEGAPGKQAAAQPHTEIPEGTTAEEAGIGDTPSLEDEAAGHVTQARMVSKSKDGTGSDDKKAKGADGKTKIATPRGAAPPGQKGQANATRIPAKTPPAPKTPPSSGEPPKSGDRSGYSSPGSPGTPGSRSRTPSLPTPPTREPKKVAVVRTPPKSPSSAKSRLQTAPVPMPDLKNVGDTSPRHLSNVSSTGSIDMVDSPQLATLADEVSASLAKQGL
Sequence of tauΔ222-427 (P10636 other isoform, or with tags, fused parts or gaps mutant): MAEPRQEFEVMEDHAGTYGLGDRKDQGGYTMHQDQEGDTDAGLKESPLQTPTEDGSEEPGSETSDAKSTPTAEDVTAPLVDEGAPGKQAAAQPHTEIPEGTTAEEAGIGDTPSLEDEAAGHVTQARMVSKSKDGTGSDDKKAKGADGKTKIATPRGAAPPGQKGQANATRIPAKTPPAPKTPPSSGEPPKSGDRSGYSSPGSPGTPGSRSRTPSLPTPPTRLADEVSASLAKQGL
Sequence of tauΔ300-312 (P10636 other isoform, or with tags, fused parts or gaps mutant): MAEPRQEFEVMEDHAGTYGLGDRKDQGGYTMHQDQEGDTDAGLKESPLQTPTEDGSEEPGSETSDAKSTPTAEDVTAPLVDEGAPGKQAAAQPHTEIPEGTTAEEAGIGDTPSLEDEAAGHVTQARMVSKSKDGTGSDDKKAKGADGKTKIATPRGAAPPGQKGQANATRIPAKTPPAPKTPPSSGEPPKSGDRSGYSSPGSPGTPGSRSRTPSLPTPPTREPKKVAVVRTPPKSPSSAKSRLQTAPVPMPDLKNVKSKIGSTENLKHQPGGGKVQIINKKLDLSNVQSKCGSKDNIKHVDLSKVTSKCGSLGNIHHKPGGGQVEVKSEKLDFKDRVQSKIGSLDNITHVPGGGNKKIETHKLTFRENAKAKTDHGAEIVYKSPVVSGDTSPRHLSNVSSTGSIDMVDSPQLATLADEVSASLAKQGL
Experimental for tau peptide 240-270: (§3) Microtiter plates were coated overnight at 37° C. with either recombinant tau proteins or with tau peptides (5 μg/ml in PBS, 50 μl/well). […] Bound monoclonal antibody was detected with sheep anti-mouse Ig HRP-conjugated (DAKO). The reaction was developed with orthophenylenediamine Solution as a peroxidase substrate and stopped with 50 μl of 2 M H₂SO₄. Absorbance was measured at 492 nm using a Multiscan MCC/340 ELISA reader (Labsystems). Readouts with an absorbance value of at least twice the value of the negative controls (PBS) were considered positive.
Experimental for tau peptide 270-300: as §3
Experimental for tau peptide 301-330: as §3
Experimental for tauΔ(1-150; 392-441)/4R: as §1, §2
Experimental for tauΔ137-441: as §3
Experimental for tauΔ222-427: as §3
Experimental for tauΔ228-441: as §3
Experimental for tauΔ257-400: as §3
Experimental for tauΔ283-441: as §3
Experimental for tauΔ300-312: as §3
Experimental for tauΔ306-400: as §3

Regarding NIKHVPGGGS [peptide NIKHVPGGGS], the binding result in [1] is “binds”. Consider B1, for which the binding result in assay [2] was “no binding (tested: 40 µM)”. In the case of HHKPGGG [tau peptide HHKPGGG], the binding result in [1] is on record as “binds”. As to SVFQHLPGGGSC (Designed peptide) [designer therapeutic epitope 2 SVFQHLPGGGSC], the “affinity for DC8E8 relative to tauΔ(1-150; 392-441)4R” value in assay [1] was > 10 fold. Turning to ENLKHQPGGGKVQIINKKLDLSNVQSKCGSKDNIKHVPGGGS (also called 42-mer) [tau peptide ENLKHQPGGGKVQIINKKLDLSNVQSKCGSKDNIKHVPGGGS], the binding result in assay [1] is on record as “binds”. Consider HVPGGGSVQ [peptide HVPGGGSVQ], for which the binding result in assay [1] is on record as “binds”. Turning to HQPGG [tau peptide HQPGG], the binding result in assay [2] is “no binding”.

For HVPGG [tau peptide HVPGG], in assay [2], the binding result is recorded as “no binding”. On to DNIAHVPGGGS (Alanine mutant of tau 295-305) [peptide DNIAHVPGGGS], for which the binding result in assay [1] was “binds”. The same measure, in the same setting: the same measure for KHVPGGG [tau peptide KHVPGGG]: “binds”. The same measure, in the same setting: the same measure for THVPGGG [tau peptide THVPGGG]: “binds”. Regarding KHQPGGG [tau peptide KHQPGGG], the binding result in [1] is recorded as “binds”. Still for that read-out and setting: to IKHVPGGGS [peptide IKHVPGGGS] belongs “binds”; to HQPGGG [tau peptide HQPGGG], “binds”; to HVPGGG [tau peptide HVPGGG], “binds”. Same read-out and setting: the same measure for HKPGGG [tau peptide HKPGGG]: “binds”; for TENLKHQPGGGK [tau peptide TENLKHQPGGGK]: “binds”. For B2, the binding result in the assay with tauΔ283-441, in the assay with tauΔ222-427, with tauΔ228-441, with tauΔ306-400, with tauΔ137-441 and with tauΔ300-312 was “no binding” in each case. The binding result in the assay with tauΔ257-400, with tau peptide 301-330, in the assay with tau peptide 270-300 and with tau peptide 240-270 was “no binding” throughout. Besides, the “fold lower kOFF of four-repeat tau species” value (in assay [3]; in the assay with tauΔ(1-150; 392-441)/4R) was 10 fold each time.

For GWSIHSPGGGSC (Designed peptide) [designer therapeutic epitope 1 GWSIHSPGGGSC], in assay [1], the binding result is reported as “binds”. Same read-out and setting: to DNIKHVPGGGSVQIVYKPV (also called 19-mer) [tau peptide DNIKHVPGGGSVQIVYKPV] belongs “binds”; to DNAKHVPGGGS (Alanine mutant of tau 295-305) [peptide DNAKHVPGGGS], “binds”; to KHVPGGGSV [peptide KHVPGGGSV], “binds”.

For the molecule DNIKHAPGGGS (Alanine mutant of tau 295-305) [peptide DNIKHAPGGGS], in assay [1], the binding result is recorded as “binds”. For the molecule DAIKHVPGGGS (Alanine mutant of tau 295-305) [peptide DAIKHVPGGGS], the binding result in assay [1] is given as “binds”. For QPGGG [tau peptide QPGGG], the binding result in assay [2] was “no binding”. For the molecule VPGGG [tau peptide VPGGG], the binding result in assay [2] is listed as “no binding”.

Regarding ANIKHVPGGGS (Alanine mutant of tau 295-305) [peptide ANIKHVPGGGS], the binding result in assay [1] is “binds”.

Turning to DNIKAVPGGGS (Alanine mutant (H299A) of tau 295-305) [peptide DNIKAVPGGGS], the binding result in assay [2] was “no binding (tested: 160 µM)”.
